Laboratory results from patent US20260201030A1, “ANTIBODY, ANTIBODY-DRUG CONJUGATE THEREOF AND USE THEREOF” (EVOPOINT BIOSCIENCES CO., LTD., priority 2021, published 2026).
Where a chain is given by its changes, count along the chain named. One block for each molecule: values may come before it.

Experiments:
Format in all cases: binding
human Claudin18.2 [1] = biological target: T1, human Claudin18.2 (Homo sapiens, UniProt P56856); assay: Cell-based ELISA affinity of murine antibodies on HEK293T-Claudin18.2 (human) cells
T1 construct: expressed in transfected cells
Method: (§1) The affinity of the anti-human Claudin18.2 murine monoclonal antibodies was evaluated by cell-based ELISA. The experimental procedures were as follows: The day before the experiment, HEK293T-Claudin18.2 (human) cells were plated in a 96-well plate at 5×10^4 cells/well. On the day of the experiment, the supernatant was removed, the cells in each well were washed once with 300 μL of PBS, and 100 μL of 4% paraformaldehyde was added to each well for fixation at room temperature for 20 min. Paraformaldehyde was then removed, and the cells in each well were washed twice with 300 μL of PBS. 100 μL of 2% BSA (in PBS) was added to each well, and the mixture was blocked at 37° C. for 2 h. After removing the blocking solution, each antibody subjected to gradient dilution (diluted with 2% BSA (in PBS), starting at […], in a 3-fold gradient, for a total of 11 concentration points) was added to the plate at 100 μL/well, and the mixture was incubated at 37° C. for 2 h. The supernatant was removed, and the cells in each well were washed three times with 300 μL of PBST. 100 μL of an anti-mouse IgG HRP secondary antibody (Jackson, cat #115-035-003) in 2% BSA was added to each well, and the mixture was incubated at 37° C. for 1 h. The secondary antibody was then removed, and the cells in each well were washed five times with 300 μL of PBST, followed by the addition of 100 μL of a TMB substrate (Huzhou InnoReagents Co., Ltd.) per well for color development for 5-20 min. The reaction was stopped by adding 50 μL of 2 N HCl to each well, and OD450 nm values were read on a microplate reader (manufacturer: MD, model: SpectraMax). The values obtained were plotted by GraphPad Prism to calculate the EC50 value.

human Claudin18.2 [2] = biological target: T1, human Claudin18.2; assay: Cell-based ELISA affinity of humanized antibodies on L929-Claudin18.2 (human) cells; settings: L929-Claudin18.2 cells
human Claudin18.1 = biological target: T2, human Claudin18.1 (Homo sapiens, UniProt P56856); assay: FACS specificity of humanized antibodies on HEK293T-Claudin18.1 (human) cells; settings: antibody 50 μg/mL, APC secondary antibody
T2 construct: expressed in transfected cells
Method: The specificity of the anti-human Claudin18.2 humanized monoclonal antibodies was determined by flow cytometry (FACS). The experimental procedures were as follows: HEK293T-Claudin18.1 (human) cells were digested, collected by centrifugation, washed three times with pre-cooled PBS, resuspended in 1% BSA (in PBS), and added to a 96-well pointed bottom plate at 3×10^5 cells/well. Each test antibody with a final concentration of 50 μg/mL was added, and the mixture was incubated at 4° C. for 1 h. The cells were washed three times with pre-cooled PBS, and then 1 μL of a fluorescent secondary antibody (APC: Biolegend-410712 or PE: BioLegend-410708) was added to each well. The mixture was incubated at 4° C. for 0.5 h, and the cells were washed three times with pre-cooled PBS, then resuspended, and assayed on a flow cytometer. For reference, anti-human Claudin18.1 positive control antibodies (positive control antibody-1 and positive control antibody-2) were included in the experiment.

human Claudin18.2 [3] = biological target: T1, human Claudin18.2; assay: Cell-based ELISA affinity of humanized antibodies on HEK293T-Claudin18.2 (human) cells; settings: HEK293T-Claudin18.2 cells
Method: as §1
The affinity of the anti-human Claudin18.2 humanized monoclonal antibodies was determined by cell-based ELISA. The cell-based ELISA was conducted as described in Example I-3.

B2: 1A6G10: anti-human Claudin18.2 murine monoclonal antibody, VH SEQ ID NO: 46, VL SEQ ID NO: 47 (antibody, V domains shown)
VH: QVQLKESGGGLVKPGGSLKLSCAASGFTFSSYAMSWVRQTPEKRLEWVAAIHSNGGSTYNSDTMRDRFTISRDHAKNTLYLQMSSLRSEDTALYYCGRQSFGNALDYWGQGTSVTVSS
VL: DIQMTQSPSSLTVTAGEKVTLTCKSSQSLLNSGNQKNYLTWYQQKPGQPPKLLIYWASTRESGVPDRFTGSGSGTFFTLTISSVQAEDLAVYFCQNDYVYPFTFGAGTQLELK
Affinity HEK293T-18.2 EC50 (human Claudin18.2 [1]): 5.024 ng/mL

B3: 2D3A11: anti-human Claudin18.2 murine monoclonal antibody, VH SEQ ID NO: 23, VL SEQ ID NO: 24 (antibody, V domains shown)
VH: EVQLQQSGPELVKPGASVRMSCKASGYTFTSYVVHWVKQKPGQGLEWIGYINPYNADSKYNERFKGKATLTSDKSSNSAYMELSSLTSEDSAVYYCSRSYYGNSFDVWGAGTTVTVSS
VL: DIVMTQSPSSLTVTTGEKVTMSCKSSQSLLNSGNQKNYLTWYQQKPGQSPKLLFFWASTRQSGVPDRFTGSGSGTYFTLTISSVQAEDLAVYYCQNDYYFPFTFGTGTKLEIK
Affinity HEK293T-18.2 EC50 (human Claudin18.2 [1]): 8.143 ng/mL

B4: 2D3A11-HZ2: humanized anti-Claudin18.2 antibody, VH SEQ ID NO: 40, VL SEQ ID NO: 39 (antibody, V domains shown)
VH: QVQLVESGAEVKKPGASVKVSCKASGYTFTSYVVHWVRQAPGQGLEWMGYINPYNADSKYSQEFQGRATLTSDKSASTAYMELSSLRSEDMAVYYCSRSYYGNSFDVWGQGTLVTVSS
VL: DIVMTQSPDSLAVSLGERATINCKSSQSLLNSGNQKNYLTWYQQKPGQSPKLLFFWASTRQSGVPDRFSGSGSGTDFTLTISSLQAEDVAVYYCQNDYYFPFTFGQGTKVEIK
Affinity detected by cell-based ELISA (EC50, ng/mL) L929-Claudin18.2 (human Claudin18.2 [2]): 25.62 ng/mL | Mean APC fluorescence signal value (human Claudin18.1): 382 | Median APC fluorescence signal value (human Claudin18.1): 329 | Positive rate (%) (human Claudin18.1): 1% | Affinity detected by cell-based ELISA (EC50, ng/mL) HEK293T-Claudin18.2 (human Claudin18.2 [3]): 14.01 ± 2.29(N = 2) ng/mL

B7: 8H11A10: anti-human Claudin18.2 murine monoclonal antibody, VH SEQ ID NO: 44, VL SEQ ID NO: 45 (antibody, V domains shown)
VH: QVQLKESGPVLVAPSQSLSITCTVSGFSLTNYGVHWVRQPPGKGLEWLGVIWSGGRTNYNSALMSRLSISKDNSKSQVFLKMNSLQTDDTAMYYCAKRDGIYGDYWGQGTSVTVSS
VL: DIVETQSPSSLTVTAGEKVTMSCKSSQSLLNSGNQKNYLTWYQQKPGQSPKLLIYWASTRESGVPDRFTGSGFGTDFTLTISSVQAEDLAVYYCQNDYIYPLTFGAGTKLELK
Affinity HEK293T-18.2 EC50 (human Claudin18.2 [1]): 12.32 ng/mL

B8: 23F2F2: anti-human Claudin18.2 murine monoclonal antibody, VH SEQ ID NO: 48, VL SEQ ID NO: 49 (antibody, V domains shown)
VH: QVQLKESGGGLVQPGGSMKLSCAASGFTFSDAWMNWVRQSPEKGLEWVAEIRNKADYHATHYVESVTGRFTISRDDSKSSVYLQMNRLRAEDTGIYYCTRNYGSRFDYWGQGTTLTVSS
VL: B7 VL with K36R, Q48H, S49P, F73S, I81V, S82T, I99F, T103A, A106T
Affinity HEK293T-18.2 EC50 (human Claudin18.2 [1]): 6.015 ng/mL

The remaining lines, values ahead:

Affinity HEK293T-18.2 EC50 (human Claudin18.2 [1]): 10.49 ng/mL
B1: 25C7A5: anti-human Claudin18.2 murine monoclonal antibody, VH SEQ ID NO: 21, VL SEQ ID NO: 22 (antibody, V domains shown)
VH: EVQLQQPGAELVKPGTSVKLSCKASGYTFTNYWLHWVRQRPGQGLEWIGMMHPISGSSNNNERFKSKATLTVDKSSTTAYMQLSRMTSEDSAVYYCARGLLSAMDYWGQGTSVTVSS
VL: CIVLTQSPKSMSMSVGERVTLSCKASENVKTYVSWYQQRPEQSPKLLIYEASNRYTGVPDRFTGSGSATVFTLTISSVQTEDLANYFCGQTYSFPPTFGSGTKLEIK

Affinity HEK293T-18.2 EC50 (human Claudin18.2 [1]): 7.376 ng/mL
B5: 40G11H2: anti-human Claudin18.2 murine monoclonal antibody, VH SEQ ID NO: 50, VL SEQ ID NO: 51 (antibody, V domains shown)
VH: EVQLQQSGAELARPGASVKLSCKASGYTFTSYGIRWVKQRTGQGLEWIGEIYPRGGNTYYDEKFKGKATLTADKSSSTAYMGLRSLTSEDSAVYFCARADYGNSFAYWGQGTLVTVSA
VL: DIVMTQSPSSLTVTAREKVTMSCKSSQSLLNSGNQKNYLTWYHQKPGQPPKLLIYWASTRESGVPDRFTGSGSGTDFTLTISSVQAEDLAVYFCQNAYFYPFTFGTGTKLEIK

Affinity HEK293T-18.2 EC50 (human Claudin18.2 [1]): 2.399 ng/mL
B6: 32F7A6: anti-human Claudin18.2 murine monoclonal antibody, VH SEQ ID NO: 52, VL SEQ ID NO: 53 (antibody, V domains shown)
VH: QIQLVQSGPELRKPGETVKISCKASGYTFTAYTMGWVKQAPGKGLEWMAWINTYSGVPTYAADFKGRFAFSLETSASTAYLLINNLKNEDTATYFCARGVRGNSMDYWGQGTSVTVSS
VL: DIVETQSPSSLTVTVGERVTLSCKSSQSLLNSGNQRNYLTWSQQKPGQPPKLLIYWASTRESGVPNRFTGGGSGTYFTLTISSVQVEDLAVYYCQNTYSFPFTFGTGTKLEIK
